B1: recombinant monoclonal antibody PR004382 (antibody, human IgG1, kappa)
heavy: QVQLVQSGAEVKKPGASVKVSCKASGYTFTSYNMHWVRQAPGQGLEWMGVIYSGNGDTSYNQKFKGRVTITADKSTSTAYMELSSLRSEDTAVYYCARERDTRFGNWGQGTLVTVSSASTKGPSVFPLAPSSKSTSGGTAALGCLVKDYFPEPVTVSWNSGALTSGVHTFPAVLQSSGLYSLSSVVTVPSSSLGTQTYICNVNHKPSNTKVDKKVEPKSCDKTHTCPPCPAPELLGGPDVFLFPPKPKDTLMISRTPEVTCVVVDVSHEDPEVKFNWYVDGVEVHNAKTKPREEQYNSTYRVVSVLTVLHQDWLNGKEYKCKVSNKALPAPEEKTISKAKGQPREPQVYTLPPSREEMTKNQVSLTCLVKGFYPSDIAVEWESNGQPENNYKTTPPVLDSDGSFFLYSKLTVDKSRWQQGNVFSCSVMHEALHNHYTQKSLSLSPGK
light: DIVMTQSPDSLAVSLGERATINCRASESVDIYGNSFMHWYQQKPGQPPKLLIYLASNLESGVPDRFSGSGSGTDFTLTISSLQAEDVAVYYCQQNNEDPYTFGGGTKVEIKRTVAAPSVFIFPPSDEQLKSGTASVVCLLNNFYPREAKVQWKVDNALQSGNSQESVTEQDSKDSTYSLSSTLTLSKADYEKHKVYACEVTHQGLSSPVTKSFNRGEC
notes: compared with a human IgG1 isotype control; also called PR004382 anti-CD117 antibody; copies: 2 + 2
B2: PR001310 anti-HELxCD3 control Bispecific T cell engager (bispecific antibody)
chain: DIVLTQSPAIMSASPGEKVTMTCSASSSVNYMYWYQQKSGTSPKRWIYDTSKLASGVPVRFSGSGSGTSYSLTISSMETEDAAEYYCQQWGRNPTFGGGTKLEIKRTVAAPSVFIFPPSDEQLKSGTASVVCLLNNFYPREAKVQWKVDNALQSGNSQESVTEQDSKDSTYSLSSTLTLSKADYEKHKVYACEVTHQGLSSPVTKSFNRGECEVQLVESGGGLVQPGGSLKLSCAASGFTFNTYAMNWVRQASGKGLEWVGRIRSKYNNYATYYADSVKDRFTISRDDSKSTLYLQMNSLKTEDTAVYYCVRHGNFGNSYVSWFAYWGQGTLVTVSSASTKGPSVFPLAPSSKSTSGGTAALGCLVKDYFPEPVTVSWNSGALTSGVHTFPAVLQSSGLYSLSSVVTVPSSSLGTQTYICNVNHKPSNTKVDKKVEPKSC
heavy: EVQLQQSGAELMKPGASVKISCKASGYTFSDYWIEWVKQRPGHGLEWIGEILPGSGSTNYHERFKGKATFTADTSSSTAYMQLNSLTSEDSGVYYCLHGNYDFDGWGQGTTLTVSSASTKGPSVFPLAPSSKSTSGGTAALGCLVKDYFPEPVTVSWNSGALTSGVHTFPAVLQSSGLYSLSSVVTVPSSSLGTQTYICNVNHKPSNTKVDKKVEPKSC
light: QAVVTQEPSLTVSPGGTVTLTCRSSTGAVTTSNYANWVQQKPGQAPRGLIGGTNKRAPWTPARFSGSLLGDKAALTLLGAQPEDEAEYFCALWYSNLWVFGGGTKLTVLGQPKAAPSVTLFPPSSEELQANKATLVCLISDFYPGAVTVAWKADSSPVKAGVETTTPSKQSNNKYAASSYLSLTPEQWKSHRSYSCQVTHEGSTVEKTVAPTECS
notes: Control engager; HEL = hen egg lysozyme; Same CD3 arm as PR004384; also called control anti-HELxCD3 Bispecific T cell engager

Experiments:
[1] = target: T1, CD117 protein (SinoBiological, cat #11996-H08H) (UniProt P10721-2 26-516); experiment: ELISA, CD117 protein coated
T1 construct: Bought reagent
T1 sequence (P10721 other isoform, or with tags, fused parts or gaps H08H H08H limits assumed): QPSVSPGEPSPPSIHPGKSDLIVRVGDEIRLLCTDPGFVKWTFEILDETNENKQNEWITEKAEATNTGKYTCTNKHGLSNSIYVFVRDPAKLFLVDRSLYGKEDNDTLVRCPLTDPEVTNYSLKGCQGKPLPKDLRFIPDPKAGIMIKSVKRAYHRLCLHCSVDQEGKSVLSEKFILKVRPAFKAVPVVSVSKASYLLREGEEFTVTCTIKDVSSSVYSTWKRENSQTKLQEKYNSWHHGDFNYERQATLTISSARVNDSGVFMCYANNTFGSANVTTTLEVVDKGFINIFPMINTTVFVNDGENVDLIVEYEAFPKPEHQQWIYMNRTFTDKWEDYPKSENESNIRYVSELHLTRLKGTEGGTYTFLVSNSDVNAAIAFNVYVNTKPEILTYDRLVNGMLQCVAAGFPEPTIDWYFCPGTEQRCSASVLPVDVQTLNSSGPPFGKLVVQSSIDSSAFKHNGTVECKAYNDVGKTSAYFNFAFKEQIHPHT

[2] = target: T2, Human CD16a (V176) protein (NovoProtein, cat #C441) (human, UniProt P08637 17-208); experiment: BLI (Octet Red 96e), CD16a (V176) on HIS1K sensors, antibody in solution, 1:1 global fit
T2 construct: also called CD16a receptor
T2 sequence (P08637 17-208 F176V limits assumed): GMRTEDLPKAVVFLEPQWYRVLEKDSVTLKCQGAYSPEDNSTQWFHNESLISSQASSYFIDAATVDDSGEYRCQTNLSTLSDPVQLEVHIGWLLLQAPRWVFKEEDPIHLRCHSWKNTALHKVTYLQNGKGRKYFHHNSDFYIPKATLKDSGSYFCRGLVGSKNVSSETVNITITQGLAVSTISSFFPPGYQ

[3] = target: T1, CD117 protein (SinoBiological, cat …); experiment: ELISA on plate-coated CD117 protein, detection with anti-human IgG (Fc specific)-peroxidase, OD at 450 nm
[4] = target: T3, Rhesus Macaque CD117 on CD34-enriched bone marrow hematopoietic stem cells (Rhesus Macaque, UniProt F6V858 26-976); experiment: flow cytometry on Rhesus Macaque CD34-enriched bone marrow cells gated on CD34+ CD117+, R-Phycoerythrin goat anti-human F(ab')2 detection
T3 construct: whole, on cells; also called CD117 of Rhesus Macaque; Rhesus Macaque CD117-positive hematopoietic stem cells

Binder	EC50 [1]	Kd [2]	koff [2]	kon [2]	EC50 (read off the curve) [3]	binding result [4]
B1	0.0155 nM	27.2 nM	0.00933 s⁻¹	343000 M⁻¹ s⁻¹	~0.1 nM	
B2						no binding
